This is an account of results in the supplement of paper PMC5998384.

Data set [1] relates to HeLa Kyoto. Nature of the data set: solubility in G1/S (NP-40 vs SDS abundance) (log2 ratio); higher = more soluble. The following applies: cell cycle stage: G1/S.
In data set [2] the test system is HeLa Kyoto. Put plainly: melting temperature (median over replicates), in situ; higher = more thermally stable.
In data set [3] the test system is HeLa Kyoto. Put plainly: solubility change mitosis vs G1/S (difference of NP-40 vs SDS log2 ratios) (log2 ratio difference); higher = more soluble in mitosis.
Data set [4] has as its system HeLa Kyoto. Nature of the data set: thermal stability score vs G1/S (z-score of summed log2 fold changes over temperatures); higher = more thermally stable than in G1/S.
Setting [5] is: cell cycle stage: early G1 (4.5 h after nocodazole release).
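For melting temperature (median over replicates), in situ in this document: HeLa Kyoto cells synchronized by double thymidine or nocodazole block, proteins quantified by TMT10plex mass spectrometry, three independent biological replicates.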
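For solubility change mitosis vs G1/S (difference of NP-40 vs SDS log2 ratios) in this document: synchronized HeLa Kyoto cells (double thymidine block for G1/S, nocodazole release for mitosis), protein amounts in NP-40 versus SDS lysates quantified by mass spectrometry, three biological replicates.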
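For solubility in G1/S (NP-40 vs SDS abundance) in this document: HeLa Kyoto cells arrested at G1/S by double thymidine block, proteins quantified by TMT10plex mass spectrometry in mild NP-40 versus SDS extracts, three biological replicates.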
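For thermal stability score vs G1/S (z-score of summed log2 fold changes over temperatures) in this document: synchronized HeLa Kyoto cells, proteins quantified by TMT10plex mass spectrometry, three biological replicates, mitosis taken 0.5 h after nocodazole release, G1/S directly after double thymidine block.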

Regarding “MGCFFSKRRKADKESRPENEEERPKQYSWDQREKVDPKDYMFSGLKDETVGRLPGTVAGQQFLIQDCENCNIYIFDHSATVTIDDCTNCIIFLGPVKGSVFFRNCRDCKCTLACQQFRVRDCRKLEVFLCCATQPIIESSSNIKFGCFQWYYPELAFQFKDAGLSIFNNTWSNIHDFTPVSGELNWSLLPEDAVVQDYVPIPTTEELKAVRVSTEANRSIVPISRGQRQKSSDESCLVVLFAGDYTIANARKLIDEMVGKGFFLVQTKEVSMKAEDAQRVFREKAPDFLPLLNKGPVIALEFNGDGAVEVCQLIVNEIFNGTKMFVSESKETASGDVDSFYNFADIQMGI [RP2]”, the “solubility in G1/S (log2)” value in the data set with HeLa Kyoto [1] was -0.343. Besides, the melting temperature came to 51.6 °C in the data set with HeLa Kyoto [2] (cell cycle stage: G1/S) and 51.1 °C in the data set on HeLa Kyoto [2] (cell cycle stage: mitosis). Also, the “solubility change mitosis (log2)” value in the data set on HeLa Kyoto [3] is -0.158. Also, the thermal stability score with HeLa Kyoto [4] (setting [5]) was -0.738; in the data set on HeLa Kyoto [4] (cell cycle stage: mitosis) it was -0.982.

Regarding “MGCIKSKGKDSLSDDGVDLKTQPVRNTERTIYVRDPTSNKQQRPVPESQLLPGQRFQTKDPEEQGDIVVALYPYDGIHPDDLSFKKGEKMKVLEEHGEWWKAKSLLTKKEGFIPSNYVAKLNTLETEEWFFKDITRKDAERQLLAPGNSAGAFLIRESETLKGSFSLSVRDFDPVHGDVIKHYKIRSLDNGGYYISPRITFPCISDMIKHYQKQADGLCRRLEKACISPKPQKPWDKDAWEIPRESIKLVKRLGAGQFGEVWMGYYNNSTKVAVKTLKPGTMSVQAFLEEANLMKTLQHDKLVRLYAVVTREEPIYIITEYMAKGSLLDFLKSDEGGKVLLPKLIDFSAQIAEGMAYIERKNYIHRDLRAANVLVSESLMCKIADFGLARVIEDNEYTAREGAKFPIKWTAPEAINFGCFTIKSDVWSFGILLYEIVTYGKIPYPGRTNADVMTALSQGYRMPRVENCPDELYDIMKMCWKEKAEERPTFDYLQSVLDDFYTATEGQYQQQP [LYN]”, the “solubility in G1/S (log2)” value in the data set on HeLa Kyoto [1] is -0.416. Also, the melting temperature in the data set with HeLa Kyoto [2] (cell cycle stage: G1/S) was 51.1 °C; in the data set on HeLa Kyoto [2] (cell cycle stage: mitosis), 50.7 °C. Besides, the “solubility change mitosis (log2)” value in the data set on HeLa Kyoto [3] is -0.0796. Also, the thermal stability score in the data set with HeLa Kyoto [4] (setting [5]) came to 1.11; with HeLa Kyoto [4] (cell cycle stage: mitosis), 0.805.

Regarding “MGDAADPREMRKTFIVPAIKPFDHYDFSRAKIACNLAWLVAKAFGTENVPEELQEPFYTDQYDQEHIKPPVVNLLLSAELYCRAGSLILKSDAAKPLLGHDAVIQALAQKGLYVTDQEKLVTERDLHKKPIQMSAHLAMIDTLMMAYTVEMVSIEKVIACAQQYSAFFQATDLPYDIEDAVMYWINKVNEHLKDIMEQEQKLKEHHTVEAPGGQKSPSKWFWKLVPARYRKEQTLLKQLPCIPLVENLLKDGTDGCALAALIHFYCPDVVRLEDICLKETMSLADSLYNLQLIQEFCQEYLNQCCHFTLEDMLYAASSIKSNYLVFMAELFWWFEVVKPSFVQPRVVRPQGAEPVKDMPSIPVLNAAKRNVLDSSSDFPSSGEGATFTQSHHHLPSRYSRPQAHSSASGGIRRSSSMSYVDGFIGTWPKEKRSSVHGVSFDISFDKEDSVQRSTPNRGITRSISNEGLTLNNSHVSKHIRKNLSFKPINGEEEAESIEEELNIDSHSDLKSCVPLNTNELNSNENIHYKLPNGALQNRILLDEFGNQIETPSIEEALQIIHDTEKSPHTPQPDQIANGFFLHSQEMSILNSNIKLNQSSPDNVTDTKGALSPITDNTEVDTGIHVPSEDIPETMDEDSSLRDYTVSLDSDMDDASKFLQDYDIRTGNTREALSPCPSTVSTKSQPGSSASSSSGVKMTSFAEQKFRKLNHTDGKSSGSSSQKTTPEGSELNIPHVVAWAQIPEETGLPQGRDTTQLLASEMVHLRMKLEEKRRAIEAQKKKMEAAFTKQRQKMGRTAFLTVVKKKGDGISPLREEAAGAEDEKVYTDRAKEKESQKTDGQRSKSLADIKESMENPQAKWLKSPTTPIDPEKQWNLASPSEETLNEGEILEYTKSIEKLNSSLHFLQQEMQRLSLQQEMLMQMREQQSWVISPPQPSPQKQIRDFKPSKQAGLSSAIAPFSSDSPRPTHPSPQSSNRKSASFSVKSQRTPRPNELKITPLNRTLTPPRSVDSLPRLRRFSPSQVPIQTRSFVCFGDDGEPQLKESKPKEEVKKEELESKGTLEQRGHNPEEKEIKPFESTVSEVLSLPVTETVCLTPNEDQLNQPTEPPPKPVFPPTAPKNVNLIEVSLSDLKPPEKADVPVEKYDGESDKEQFDDDQKVCCGFFFKDDQKAENDMAMKRAALLEKRLRREKETQLRKQQLEAEMEHKKEETRRKTEEERQKKEDERARREFIRQEYMRRKQLKLMEDMDTVIKPRPQVVKQKKQRPKSIHRDHIESPKTPIKGPPVSSLSLASLNTGDNESVHSGKRTPRSESVEGFLSPSRCGSRNGEKDWENASTTSSVASGTEYTGPKLYKEPSAKSNKHIIQNALAHCCLAGKVNEGQKKKILEEMEKSDANNFLILFRDSGCQFRSLYTYCPETEEINKLTGIGPKSITKKMIEGLYKYNSDRKQFSHIPAKTLSASVDAITIHSHLWQTKRPVTPKKLLPTKA [CAMSAP2]”, the “solubility in G1/S (log2)” value in the data set with HeLa Kyoto [1] came to 0.00851. In addition, the melting temperature is 51.7 °C with HeLa Kyoto [2] (cell cycle stage: G1/S) and 53 °C with HeLa Kyoto [2] (cell cycle stage: mitosis). Further, the “solubility change mitosis (log2)” value with HeLa Kyoto [3] is -0.0823. The results for the thermal stability score in the data set with HeLa Kyoto [4] (setting [5]) and in the data set with HeLa Kyoto [4] (cell cycle stage: mitosis) were 1.04 and 2.88, respectively.

As to “MGDMANNSVAYSGVKNSLKEANHDGDFGITLAELRALMELRSTDALRKIQESYGDVYGICTKLKTSPNEGLSGNPADLERREAVFGKNFIPPKKPKTFLQLVWEALQDVTLIILEIAAIVSLGLSFYQPPEGDNALCGEVSVGEEEGEGETGWIEGAAILLSVVCVVLVTAFNDWSKEKQFRGLQSRIEQEQKFTVIRGGQVIQIPVADITVGDIAQVKYGDLLPADGILIQGNDLKIDESSLTGESDHVKKSLDKDPLLLSGTHVMEGSGRMVVTAVGVNSQTGIIFTLLGAGGEEEEKKDEKKKEKKNKKQDGAIENRNKAKAQDGAAMEMQPLKSEEGGDGDEKDKKKANLPKKEKSVLQGKLTKLAVQIGKAGLLMSAITVIILVLYFVIDTFWVQKRPWLAECTPIYIQYFVKFFIIGVTVLVVAVPEGLPLAVTISLAYSVKKMMKDNNLVRHLDACETMGNATAICSDKTGTLTMNRMTVVQAYINEKHYKKVPEPEAIPPNILSYLVTGISVNCAYTSKILPPEKEGGLPRHVGNKTECALLGLLLDLKRDYQDVRNEIPEEALYKVYTFNSVRKSMSTVLKNSDGSYRIFSKGASEIILKKCFKILSANGEAKVFRPRDRDDIVKTVIEPMASEGLRTICLAFRDFPAGEPEPEWDNENDIVTGLTCIAVVGIEDPVRPEVPDAIKKCQRAGITVRMVTGDNINTARAIATKCGILHPGEDFLCLEGKDFNRRIRNEKGEIEQERIDKIWPKLRVLARSSPTDKHTLVKGIIDSTVSDQRQVVAVTGDGTNDGPALKKADVGFAMGIAGTDVAKEASDIILTDDNFTSIVKAVMWGRNVYDSISKFLQFQLTVNVVAVIVAFTGACITQDSPLKAVQMLWVNLIMDTLASLALATEPPTESLLLRKPYGRNKPLISRTMMKNILGHAFYQLVVVFTLLFAGEKFFDIDSGRNAPLHAPPSEHYTIVFNTFVLMQLFNEINARKIHGERNVFEGIFNNAIFCTIVLGTFVVQIIIVQFGGKPFSCSELSIEQWLWSIFLGMGTLLWGQLISTIPTSRLKFLKEAGHGTQKEEIPEEELAEDVEEIDHAERELRRGQILWFRGLNRIQTQIRVVNAFRSSLYEGLEKPESRSSIHNFMTHPEFRIEDSEPHIPLIDDTDAEDDAPTKRNSSPPPSPNKNNNAVDSGIHLTIEMNKSATSSSPGSPLHSLETSL [ATP2B1]”, the “solubility in G1/S (log2)” value in the data set with HeLa Kyoto [1] is -0.179. In addition, the melting temperature in the data set with HeLa Kyoto [2] (cell cycle stage: G1/S) was 54.1 °C; in the data set with HeLa Kyoto [2] (cell cycle stage: mitosis), 53.4 °C. In addition, in the data set on HeLa Kyoto [3], the “solubility change mitosis (log2)” value was -0.103. In addition, the results for the thermal stability score with HeLa Kyoto [4] (setting [5]) and in the data set with HeLa Kyoto [4] (cell cycle stage: mitosis) were 0.336 and 1.72, respectively.
